Results reported in US20100075326A1 (CORNELL UNIVERSITY, published 2010).

How the values were obtained:
[1] = biological target: T1, Botulinum neurotoxin serotype A light chain protease (BoNT/A-LC), YS2H bait fused to Aga2 with C-terminal … (yeast, UniProt P0DPI0 1-448); assay: predicted from YS2H (flow cytometry of Myc and FLAG tags, Langmuir equation)
T1 construct: range 1-448

[2] = biological target: T2, Botulinum neurotoxin serotype A light chain protease (BoNT/A-LC), soluble, hexahistidine tags at both termini (UniProt P0DPI0 1-448); assay: SPR (Biacore), G6 compared with B8 on A-LC
T2 construct: range 1-448

[3] = biological target: T2, Botulinum neurotoxin serotype A light …; assay: SPR (Biacore), A-LC injected over G6-coated chip
[4] = biological target: T2, Botulinum neurotoxin serotype A light …; assay: SPR (Biacore), A-LC injected over G6-coated chip; remark: listed apart in the source
[5] = biological target: T2, Botulinum neurotoxin serotype A light …; assay: SPR (Biacore), A-LC injected over B8-coated chip
[6] = biological target: T2, Botulinum neurotoxin serotype A light …; assay: SPR (Biacore), A-LC injected over B8-coated chip; remark: listed apart in the source

B1: VHH-G6, secreted YS2H prey with C-terminal Myc tag (VHH)
VHH: HVQLQQSGGGLVQPGGSLRLSCAASGFTLDYYAIGWFRQAPGKEREGVSCISSSGGSTYYADSVKGRFTISRDNAKNTVYLQMNSLKPEDTAVYYCAVAQSCLRGGVRGGYWGQGTQVTVSS
Question: Which Kd [1] does the source give for B1 here?
Answer: The Kd was 143 nM.

B2: VHH-G6, soluble, from E. coli (pET20b) (VHH)
VHH: HVQLQQSGGGLVQPGGSLRLSCAASGFTLDYYAIGWFRQAPGKEREGVSCISSSGGSTYYADSVKGRFTISRDNAKNTVYLQMNSLKPEDTAVYYCAVAQSCLRGGVRGGYWGQGTQVTVSS
Question: With B2 as the binder, how does the “fold difference in affinity against B8” value [2] read?
Answer: Its value is 100 fold.

Question: And the “fold difference in association rate against B8” value [2]?
Answer: Its value is 3 fold.

Question: What about the “fold difference in dissociation rate against B8” value [2] of the same binder?
Answer: The value was 34 fold.

Question: What about the koff [3] of the same binder?
Answer: Its koff is 0.0182 s⁻¹.

Question: What about the kon [3] of the same binder?
Answer: Its kon is 76100 M⁻¹ s⁻¹.

Question: What about the Kd [4] of the same binder?
Answer: The Kd was 230 nM.

B3: VHH-B8, secreted YS2H prey with C-terminal Myc tag (VHH)
VHH: HVQLQQSGGGLVQPGGSLRLSCAASGSIFSIYAMGWYRQAPGKQRELVAAISSYGSTNYADSVKGRFTISRDNAKNTVYLQMNSLKPEDTAVYYCNADIATMTAVGGFDYWGQGTQVTVSS
Question: With B3 as the binder, how does the Kd [1] read?
Answer: The Kd was 38.2 nM.

B4: VHH-B8, soluble, from E. coli (pET20b) (VHH)
VHH: HVQLQQSGGGLVQPGGSLRLSCAASGSIFSIYAMGWYRQAPGKQRELVAAISSYGSTNYADSVKGRFTISRDNAKNTVYLQMNSLKPEDTAVYYCNADIATMTAVGGFDYWGQGTQVTVSS
Question: For B4, which koff [5] is on record?
Answer: Its koff is 0.000518 s⁻¹.

Question: What about the kon [5] of the same binder?
Answer: Its kon is 226000 M⁻¹ s⁻¹.

Question: And the Kd [6]?
Answer: The Kd was 2.3 nM.
